# According to patent US10793872B2, “HPPD variants and methods of use” (Bayer CropScience AG, priority 2012, dated 2020):
# Like-named read-outs stand apart in the source and are kept apart here.
# Columns and labels:
# [1] = biological target: T1, Pseudomonas fluorescens HPPD variant CO210d10, SEQ ID NO:9 (Pseudomonas sp., UniProt P80064, E334P/G335S/K338T); assay: biochemical; details: read-out: pI50 (converted)
# T1 construct: CO210d10; […]; Ala + His6 directly after the start Met (N); made in house; host or cells: E. coli
# [2] = biological target: T2, Pseudomonas fluorescens HPPD variant CO212f3, SEQ ID NO:10 (Pseudomonas sp., UniProt P80064, A339V/E334G/G335W); assay: biochemical; details: read-out: pI50 (converted)
# T2 construct: CO212f3; […]; Ala + His6 directly after the start Met (N); made in house; host or cells: E. coli
# [3] = biological target: Pseudomonas aeruginosa (strain ATX22717) HPPD Axmi305H, native, SEQ ID NO:57 (Pseudomonas aeruginosa, UniProt Q9I576); assay: HPPD coupling assay, Axmi305H
# [4] = biological target: T3, Pseudomonas fluorescens HPPD variant PfHPPDEvo36 (serine for glutamic acid at 335, serine for tryptophan at 336, threonine for lysine at 339, glutamine for alanine at 340 relative to PfG336W), SEQ ID NO:7 (Pseudomonas sp., UniProt P80064, A339Q/E334S/G335S/K338T); assay: biochemical
# T3 construct: made in house; host or cells: E. coli (DH5alpha for library screening)
# [5] = biological target: T4, Pseudomonas fluorescens HPPD variant C024H11, SEQ ID NO:5 (Pseudomonas sp., UniProt P80064, G335W/P214L); assay: biochemical
# T4 construct: C024H11; […]; made in house; host or cells: E. coli (DH5alpha for library screening)
# [6] = biological target: T5, Pseudomonas fluorescens HPPD variant PfHPPDEvo36 (serine for glutamic acid at 335, serine for tryptophan at 336, threonine for lysine at 339, glutamine for alan (Pseudomonas sp., UniProt P80064, A339Q/E334S/G335S/K338T)); format: biochemical
# T5 construct: made in house; host or cells: E. coli (DH5alpha for library screening)
# Description: The theoretical diversity of this library was 640. Screening was carried out as described in Example 3.
# [7] = biological target: Pseudomonas aeruginosa HPPD Axmi305H (SEQ ID NO:57) variant Axmi305H-Evo41 (Pseudomonas aeruginosa, UniProt Q9I576, A342Q/E337P/G338W/K341A); assay: biochemical
# Description: This method is called the HGD assay.
# The mutants generated by this approach were transformed into B121-DE3* cells and grown to saturation in LB media. […] By this method, active HPPD enzyme will produce a brown pigment after approximately 24 hours of growth on plates.
# [8] = biological target: T2, Pseudomonas fluorescens HPPD variant CO212f3, SEQ ID NO:10; assay: biochemical
# [9] = biological target: Pseudomonas fluorescens HPPD variant PfHPPDEvo40, SEQ ID NO:8 (Pseudomonas sp., UniProt P80064, A339E/E334P/G335S); assay: HPPD inhibition, HPLC based assay, PfHPPDEvo40
# HPPD [10] = details: reaction stopped after 24 min
# Description: Kon=K1 equals the association rate constant of the […] and Koff=K−1 equals the rate constant of the enzyme-inhibitor complex dissociation. Ki defines the inhibition constant. For the determination of the specific activity of the enzymes, samples were incubated, and the reaction was stopped after 24 min. The specific activity was estimated by μg of protein.
# For the determination of the specific activity of the enzymes, samples were incubated, and the reaction was stopped after 24 min. The specific activity was estimated by μg of protein.
# Samples were incubated, and the reaction was stopped after 24 min. The specific activity was estimated by μg of protein.
# [11] = test system: E. coli cells expressing HPPDs; assay: Plating whole E. coli cells expressing HPPDs on media containing HPPD inhibitors; format: cell-based; details: whole E. coli cells on plates with 250 uM inhibitor, 18 hours at 37 degrees C
# Description: Variants were also tested by plating whole E. coli cells expressing HPPDs on media containing various HPPD inhibitors. For these experiments, DH5alpha cells containing HPPD expressing plasmids were grown in LB media+kanamycin until an OD600 nm=0.5 was reached. Serial dilutions of cells were prepared in LB media+kanamycin corresponding to OD600 values of 0.016, 0.008, 0.004, and 0.002. Ten microliters of each dilution were plated in triplicate on plates containing no HPPD inhibitor, 250 uM TBT, 250 uM DKN and 250 uM mesotrione (MST). Plates were incubated for 18 hours at 37 degrees C.
# Soybean plants [12] = assay: Spray test of soybean plants expressing HPPD for tolerance to tembotrione; format: in vivo; details: tembotrione (LAUDIS SC) 184 grams/hectare, one week after spraying; for Number of plants rated +: + = completely bleached; for Number of plants rated ++ or +++: slight tolerance or very little effect
# Description: Soybean plants expressing an HPPD inhibitor tolerant enzyme of the present invention, along with a gene conferring tolerance to glyphosate and a gene conferring tolerance to glufosinate, were tested for tolerance to tembotrione. A DeVries Tracker Sprayer was calibrated prior to each spraying. The chemical formulation used for tembotrione testing was LAUDIS® SC formulation. Spray tests were conducted using 184 grams/hectare; 34.5% TBT. Tolerance was evaluated one week after spraying. A rating of “+” was assigned to plants that were completely bleached in the actively growing tissue. A rating of “++” was assigned to plants having slight tolerance, i.e., the newest plant tissues had some green and are not bleached completely. A rating of “+++” was assigned to plants showing very little effect from spray, i.e., some chlorosis or very slight bleaching was present.
# HPPD [13] = test system: HPPD
# Description: For Km and Vmax value determinations the initial rates of the HPPD reaction at different substrate concentrations were determined from plots of HGA formed versus time and fitted to the Michaelis-Menten equation for unireactant enzymes using the ID Business Solutions Ltd. (www.idbs.com) XLfit software suite.
# In below given Table 1, “Km” (Michaelis-Menten constant) means the kinetic parameter that is used to characterize an enzyme, and it is defined as the concentration of substrate that permits half maximal rate of the reaction. Km is further defined as the substrate concentration at which the reaction rate reaches half of its maximum value (Vmax/2) where Vmax has the meaning of being the maximum velocity of the reaction.
# Soybean plants [14] = assay: Field trials of soybean events expressing HPPD, post-emergent HPPD inhibitor application, phytotoxicity; format: in vivo; details: for events exhibiting less than or equal to 20% average phytotoxicity: T1 events, evaluated after 7 days; for events exhibiting less than or equal to 20% average phytotoxicity / events exhibiting less than or equal to 25% maximum phytotoxicity: post-emergent tembotrione 200 g ai/ha; for events exhibiting less than or equal to 25% maximum phytotoxicity: field trial United States (Minnesota); for events exhibiting less than or equal to 25% maximum phytotoxicity / events exhibiting less than or equal to 18% maximum phytotoxicity: T2; for events exhibiting less than or equal to 18% maximum phytotoxicity: field trial in Argentina, post-emergent isoxaflutole 210 g ai/ha
# Text: The plants were sprayed at the v2-v3 stage with 1× glufosinate. Five days after treatment with glufosinate, the surviving plants were sprayed with 2× tembotrione, 2× mesotrione, or 2× isoxaflutole and evaluated for phytotoxicity after 7 days.
# HPPD [15] = details: Table 14
# [16] = PfHPPDEvo36 extract titrated on 250 uM inhibitor
# [17] = spectrophotometric method, Table 6
# T2 sequence (P80064 other isoform, or with tags, fused parts or gaps with the stated changes): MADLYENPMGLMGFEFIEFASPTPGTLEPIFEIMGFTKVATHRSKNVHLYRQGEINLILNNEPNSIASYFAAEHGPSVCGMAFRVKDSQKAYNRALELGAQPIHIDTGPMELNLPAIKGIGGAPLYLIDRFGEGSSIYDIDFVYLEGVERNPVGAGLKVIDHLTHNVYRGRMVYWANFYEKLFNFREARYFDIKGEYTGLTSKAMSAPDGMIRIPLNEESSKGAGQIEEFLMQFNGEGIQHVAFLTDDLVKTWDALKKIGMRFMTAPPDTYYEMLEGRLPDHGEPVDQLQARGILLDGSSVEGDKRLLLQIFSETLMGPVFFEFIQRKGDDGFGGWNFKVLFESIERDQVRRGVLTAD
# T4 sequence (P80064 other isoform, or with tags, fused parts or gaps with the stated changes): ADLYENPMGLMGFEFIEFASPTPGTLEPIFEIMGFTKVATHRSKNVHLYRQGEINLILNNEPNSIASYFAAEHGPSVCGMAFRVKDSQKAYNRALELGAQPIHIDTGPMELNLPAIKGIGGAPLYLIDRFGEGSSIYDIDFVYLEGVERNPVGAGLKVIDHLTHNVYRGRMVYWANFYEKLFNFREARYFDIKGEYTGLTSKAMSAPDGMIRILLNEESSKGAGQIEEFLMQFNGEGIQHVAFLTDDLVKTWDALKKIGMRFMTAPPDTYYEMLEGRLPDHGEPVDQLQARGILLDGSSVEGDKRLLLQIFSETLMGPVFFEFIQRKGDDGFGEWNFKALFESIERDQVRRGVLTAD
# T1 sequence (P80064 other isoform, or with tags, fused parts or gaps with the stated changes): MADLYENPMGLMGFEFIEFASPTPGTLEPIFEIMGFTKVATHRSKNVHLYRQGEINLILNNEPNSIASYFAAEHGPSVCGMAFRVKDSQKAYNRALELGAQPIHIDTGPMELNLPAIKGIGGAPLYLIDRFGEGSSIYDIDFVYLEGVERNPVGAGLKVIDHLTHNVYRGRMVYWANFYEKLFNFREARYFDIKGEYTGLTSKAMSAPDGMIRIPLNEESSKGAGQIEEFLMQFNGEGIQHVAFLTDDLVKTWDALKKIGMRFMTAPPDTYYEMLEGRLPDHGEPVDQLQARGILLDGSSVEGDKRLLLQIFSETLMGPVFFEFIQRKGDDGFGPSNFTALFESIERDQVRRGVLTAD
# Pseudomonas aeruginosa (strain ATX22717) HPPD Axmi305H, native, SEQ ID NO:57, sequence (Q9I576 whole entry): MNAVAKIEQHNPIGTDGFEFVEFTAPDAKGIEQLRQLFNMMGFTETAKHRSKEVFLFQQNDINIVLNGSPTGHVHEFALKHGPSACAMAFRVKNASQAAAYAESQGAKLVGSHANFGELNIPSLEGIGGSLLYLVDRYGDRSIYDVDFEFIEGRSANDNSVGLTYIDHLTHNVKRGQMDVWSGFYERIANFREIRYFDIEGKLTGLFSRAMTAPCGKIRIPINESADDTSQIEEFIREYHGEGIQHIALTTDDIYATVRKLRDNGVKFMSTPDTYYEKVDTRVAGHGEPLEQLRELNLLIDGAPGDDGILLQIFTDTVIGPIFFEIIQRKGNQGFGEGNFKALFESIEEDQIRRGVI
# Pseudomonas aeruginosa HPPD Axmi305H (SEQ ID NO:57) variant Axmi305H-Evo41, sequence (Q9I576 whole entry E337P/G338W/K341A/A342Q): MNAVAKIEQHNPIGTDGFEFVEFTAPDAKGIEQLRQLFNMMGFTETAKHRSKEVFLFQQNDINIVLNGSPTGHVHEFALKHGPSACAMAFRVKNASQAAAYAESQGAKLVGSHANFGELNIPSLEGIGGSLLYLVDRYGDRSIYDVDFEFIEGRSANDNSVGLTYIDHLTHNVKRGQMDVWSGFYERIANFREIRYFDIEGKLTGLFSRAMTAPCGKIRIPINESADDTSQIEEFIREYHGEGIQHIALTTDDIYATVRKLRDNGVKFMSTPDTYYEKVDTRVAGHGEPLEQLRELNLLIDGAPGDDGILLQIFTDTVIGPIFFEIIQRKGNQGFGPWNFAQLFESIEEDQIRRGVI
molecule,measurement,setting,value
"CS(=O)(=O)c1ccc(C(=O)C2C(=O)CCCC2=O)c([N+](=O)[O-])c1 [Mesotrione, 2-[4-(methylsulfonyl)-2-nitrobenzoyl]-1,3-cyclohexanedione]",IC50,[1],2 µM
same,IC50,[2],3.98 µM
same,IC50,[3],0.2 µM
"CS(=O)(=O)c1cc(C(F)(F)F)ccc1C(=O)C(C#N)C(=O)C1CC1 (centres unmarked) [Diketonitrile, 2-cyano-3-cyclopropyl-1-(2-methylsulphonyl-4-trifluoromethylphenyl)-propane-1,3-dione]",IC50,[4],31.6 µM
same,IC50,[1],50.1 µM
same,IC50,[2],20 µM
same,IC50,[5],100 µM
same,improved tolerance compared to PfG336W,[6],16 ×
same,improved tolerance compared to PfHPPDEvo33,[6],4 ×
same,IC50,[7],10 µM
"CS(=O)(=O)c1ccc(C(=O)C2C(=O)CCCC2=O)c(Cl)c1COCC(F)(F)F [Tembotrione, 2-[2-chloro-4-(methylsulfonyl)-3-[(2,2,2,-tri-fluoroethoxy)methyl]benzoyl]-1,3-cyclo-hexanedione]",IC50,[5],15.8 µM
same,IC50,[8],15.8 µM
same,improved tolerance compared to PfG336W,[6]; [16],16 ×
same,improved tolerance compared to PfHPPDEvo33,[6]; [16],4 ×
same,IC50,[9],10 µM
"PfHPPDEvo40: HPPD variant SEQ ID NO:8 (protein, HPPD mutant - PfHPPDEvo40) MADLYENPMGLMGFEFIEFASPTPGTLEPIFEIMGFTKVATHRSKNVHLYRQGEINLILNNEPNSIASYFAAEHGPSVCGMAFRVKDSQKAYNRALELGAQPIHIDTGPMELNLPAIKGIGGAPLYLIDRFGEGSSIYDIDFVYLEGVERNPVGAGLKVIDHLTHNVYRGRMVYWANFYEKLFNFREARYFDIKGEYTGLTSKAMSAPDGMIRIPLNEESSKGAGQIEEFLMQFNGEGIQHVAFLTDDLVKTWDALKKIGMRFMTAPPDTYYEMLEGRLPDHGEPVDQLQARGILLDGSSVEGDKRLLLQIFSETLMGPVFFEFIQRKGDDGFGPSNFKELFESIERDQVRRGVLTAD",Specific activity,HPPD [10]; [17],0.42 Delta Absorbance/24 min/μg pro
same,tolerance to TBT and MST compared to PfG336W,[11],improved tolerance
same,Percent ++ or +++,Soybean plants [12],31.4%
same,Number of plants rated +,Soybean plants [12],60
same,Number of plants rated ++ or +++,Soybean plants [12],65
"PfHPPDEvo36: HPPD variant SEQ ID NO:7; 335 serine, 336 serine, 339 threonine, 340 glutamine relative to PfG336W (protein, HPPD mutant - PfHPPDEvo36) MADLYENPMGLMGFEFIEFASPTPGTLEPIFEIMGFTKVATHRSKNVHLYRQGEINLILNNEPNSIASYFAAEHGPSVCGMAFRVKDSQKAYNRALELGAQPIHIDTGPMELNLPAIKGIGGAPLYLIDRFGEGSSIYDIDFVYLEGVERNPVGAGLKVIDHLTHNVYRGRMVYWANFYEKLFNFREARYFDIKGEYTGLTSKAMSAPDGMIRIPLNEESSKGAGQIEEFLMQFNGEGIQHVAFLTDDLVKTWDALKKIGMRFMTAPPDTYYEMLEGRLPDHGEPVDQLQARGILLDGSSVEGDKRLLLQIFSETLMGPVFFEFIQRKGDDGFGSSNFTQLFESIERDQVRRGVLTAD",Specific activity,HPPD [10]; [17],0.82 Delta Absorbance/24 min/μg pro
same,Percent ++ or +++,Soybean plants [12],20.45%
same,Number of plants rated +,Soybean plants [12],47
same,Number of plants rated ++ or +++,Soybean plants [12],18
"PfHPPDEvo41: HPPD variant SEQ ID NO:16 (protein, HPPD mutant - PfHPPDEvo41) MADLYENPMGLMGFEFIEFASPTPGTLEPIFEIMGFTKVATHRSKNVHLYRQGEINLILNNEPNSIASYFAAEHGPSVCGMAFRVKDSQKAYNRALELGAQPIHIDTGPMELNLPAIKGIGGAPLYLIDRFGEGSSIYDIDFVYLEGVERNPVGAGLKVIDHLTHNVYRGRMVYWANFYEKLFNFREARYFDIKGEYTGLTSKAMSAPDGMIRIPLNEESSKGAGQIEEFLMQFNGEGIQHVAFLTDDLVKTWDALKKIGMRFMTAPPDTYYEMLEGRLPDHGEPVDQLQARGILLDGSSVEGDKRLLLQIFSETLMGPVFFEFIQRKGDDGFGPWNFAQLFESIERDQVRRGVLTAD",Km,"HPPD [13]; Table 9, same values as Table 5",336 µM
same,Km,"HPPD [13]; read-out: HPP Km, substrate HPP, Table 5",336 µM
same,HPP Kcat,"HPPD [13]; substrate HPP, Table 5",1.1 s⁻¹
same,Specific activity,HPPD [10]; [17],0.44 Delta Absorbance/24 min/μg pro
same,tolerance to TBT and MST compared to PfG336W,[11],improved tolerance
same,Percent ++ or +++,Soybean plants [12],32.75%
same,Number of plants rated +,Soybean plants [12],412
same,Number of plants rated ++ or +++,Soybean plants [12],279
same,events exhibiting less than or equal to 20% average phytotoxicity,Soybean plants [14],Nine out of 18
same,events exhibiting less than or equal to 25% maximum phytotoxicity,Soybean plants [14],7 out of 7
same,events exhibiting less than or equal to 18% maximum phytotoxicity,Soybean plants [14],5 out of 10
same,Km,HPPD [15],336 µM
"PfG336W: Pseudomonas fluorescens HPPD mutant, glycine at position 336 replaced by tryptophan, SEQ ID NO:2 (protein, HPPD mutant - PfG336W) MADLYENPMGLMGFEFIEFASPTPGTLEPIFEIMGFTKVATHRSKNVHLYRQGEINLILNNEPNSIASYFAAEHGPSVCGMAFRVKDSQKAYNRALELGAQPIHIDTGPMELNLPAIKGIGGAPLYLIDRFGEGSSIYDIDFVYLEGVERNPVGAGLKVIDHLTHNVYRGRMVYWANFYEKLFNFREARYFDIKGEYTGLTSKAMSAPDGMIRIPLNEESSKGAGQIEEFLMQFNGEGIQHVAFLTDDLVKTWDALKKIGMRFMTAPPDTYYEMLEGRLPDHGEPVDQLQARGILLDGSSVEGDKRLLLQIFSETLMGPVFFEFIQRKGDDGFGEWNFKALFESIERDQVRRGVLTAD",Specific activity,HPPD [10]; Table 1,0.40 ΔE/24 min μg Protein
same,Specific activity,HPPD [10]; [17],0.4 Delta Absorbance/24 min/μg pro
same,Percent ++ or +++,Soybean plants [12],7.12%
same,Number of plants rated +,Soybean plants [12],811
same,Number of plants rated ++ or +++,Soybean plants [12],160
same,events exhibiting less than or equal to 20% average phytotoxicity,Soybean plants [14],0 out of 18
same,events exhibiting less than or equal to 25% maximum phytotoxicity,Soybean plants [14],1 out of 11
same,events exhibiting less than or equal to 18% maximum phytotoxicity,Soybean plants [14],1 out of 3
